Assay [1] addresses Repeat1-Fc (CSPG4 Repeat1, residues 410–551, fused to the N-terminus of human IgG1 Fc) (human) (UniProt Q6UVK1). The assay is described as follows: BLI; Repeat1-Fc (50 nM) immobilised on Anti-hIgG-Fc biosensors, TcdB1 or TcdB2 in solution; 20 mM HEPES, 400 mM NaCl, pH 7.5, 10 mM CaCl2, 0.1% Tween-20, 0.5% BSA; 1:1 binding model. A general note: BLI is a label-free optical method that tracks binding on a fibre tip over time.

Assay [2] deals with TcdB2 (R20292 strain), recombinant full-length, from Bacillus megaterium (Clostridioides difficile (R20292 strain as printed)).

Experimental findings from PMC8213806 are described below.

Repeat1-Fc (CSPG4 Repeat1, residues 410–551, fused to the N-terminus of human IgG1 Fc) (human), sequence (Q6UVK1 410-551): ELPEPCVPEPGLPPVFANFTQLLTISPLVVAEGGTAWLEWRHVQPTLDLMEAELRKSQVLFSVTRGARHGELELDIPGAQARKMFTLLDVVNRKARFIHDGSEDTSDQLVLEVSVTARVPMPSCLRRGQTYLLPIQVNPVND
Repeat1-Fc (CSPG4 Repeat1, residues 410–551, fused to the N-terminus of human IgG1 Fc), sequence (Q6UVK1 410-551): as above

In assay [1], “TcdB2 (R20292 strain), recombinant full-length, from Bacillus megaterium (natural protein)” showed a Kd of 5.4 nM, a koff of 4.63e-05 s⁻¹ and a kon of 8340 M⁻¹ s⁻¹.

As to “Repeat1-Fc (CSPG4 Repeat1, residues 410–551, fused to the N-terminus of human IgG1 Fc) (from UniProt Q6UVK1 410-551) (Fc fusion)”, the neutralisation in the cell-rounding assay on HeLa cells, 24 h, Repeat1-Fc at 2 µM; cells kept from rounding in assay [2] stood at 40%.

In general, Kd refers to the constant that tells how readily two partners part at equilibrium. A low value points to tighter binding. For orientation: koff means a measure of how fast the partners let go of each other. High values mean fast dissociation, low ones slow dissociation. Broadly, the kon is the second-order rate constant of association.
